Results as given in patent US20250011363A1, “OPTIMIZED SHORTENED PEPTIDE THAT BINDS TO ACETYLCHOLINE RECEPTOR, AND USE THEREOF” (SKINMED CO., LTD., priority 2021, published 2025).

B1: 6mer-1-169 (peptide)
peptide: RRQQSK
B2: 6mer-1-172 (peptide)
peptide: RRLIRK
B3: 6mer-1-197 (peptide)
peptide: RRSIRR
B4: 6mer-1-189 (peptide)
peptide: KKSYSK
B5: 6mer-1-190 (peptide)
peptide: RKLYYR
B6: 6mer-1-198 (peptide)
peptide: KRLFCR
B7: 6mer-2-141 (peptide)
peptide: KWYQKK
B8: 6mer-2-154 (peptide)
peptide: KRVTKR
B9: 6mer-1-194 (peptide)
peptide: RKWQRR
B10: 6mer-2-142 (peptide)
peptide: RWVLRR
B11: 6mer-2-146 (peptide)
peptide: KQLLKR
B12: 6mer-2-139 (peptide)
peptide: KLFRKK
B13: 6mer-1-168 (peptide)
peptide: KRWFCK
B14: 6mer-2-143 (peptide)
peptide: RRVCRR
B15: 6mer-1-185 (peptide)
peptide: KRQLRK
B16: 6mer-2-152 (peptide)
peptide: RQFYKR
B17: 6mer-1-188 (peptide)
peptide: RKSLQK
B18: 6mer-1-201 (peptide)
peptide: RRRIQR
B19: 6mer-2-147 (peptide)
peptide: RQYTKR
B20: 6mer-2-158 (peptide)
peptide: RSFLRR
B21: 6mer-2-144 (peptide)
peptide: KSIRRK
B22: 6mer-2-155 (peptide)
peptide: KGVYKK
B23: 6mer-2-137 (peptide)
peptide: KVFCKK
B24: 6mer-1-174 (peptide)
peptide: KKGVCR
B25: 6mer-1-176 (peptide)
peptide: KKVYCK
B26: 6mer-2-149 (peptide)
peptide: KGQQRK
B27: 6mer-2-156 (peptide)
peptide: KGLQRR
B28: 6mer-2-159 (peptide)
peptide: RQYYRK
B29: 6mer-1-181 (peptide)
peptide: KKGVLR
B30: 6mer-1-183 (peptide)
peptide: KKGQTR
B31: 6mer-1-192 (peptide)
peptide: KRQYQR
B32: 6mer-2-157 (peptide)
peptide: RSYRKK
B33: 6mer-1-173 (peptide)
peptide: RKQYYR
B34: 6mer-1-191 (peptide)
peptide: KKQILK
B35: 6mer-1-171 (peptide)
peptide: RKQFQK
B36: 6mer-1-186 (peptide)
peptide: RRRVYK
B37: 6mer-1-170 (peptide)
peptide: RKSFYR
B38: 6mer-1-184 (peptide)
peptide: KRQICR
B39: 6mer-1-195 (peptide)
peptide: KRGISR
B40: 6mer-1-182 (peptide)
peptide: KRGICK
B41: 6mer-1-196 (peptide)
peptide: RKWRRK
B42: 6mer-1-180 (peptide)
peptide: RKLVRK
B43: 6mer-2-150 (peptide)
peptide: KRILKR
B44: 6mer-2-140 (peptide)
peptide: KGRLKK
B45: 6mer-2-145 (peptide)
peptide: RQYYKK
B46: 6mer-1-179 (peptide)
peptide: KRSQYR
B47: 6mer-2-151 (peptide)
peptide: KQLRKR
B48: 6mer-2-148 (peptide)
peptide: KGQYKK
B49: 6mer-2-153 (peptide)
peptide: RVYSRR
B50: 6mer-1-199 (peptide)
peptide: KKQVQK
B51: 6mer-1-178 (peptide)
peptide: RKRYQK
B52: 6mer-1-200 (peptide)
peptide: RKLYQR
B53: 6mer-2-138 (peptide)
peptide: KQRRRK
B54: 6mer-1-187 (peptide)
peptide: RKLFYK
B55: 6mer-1-177 (peptide)
peptide: KRGYRR
B56: 6mer-1-175 (peptide)
peptide: RRRIQK
B57: 6mer-1-193 (peptide)
peptide: KRVQLK

Target: acetylcholine receptor
Test: SPR, receptor immobilized, peptide 10 uM

**Q.** With B1 as the binder, how does the Binding affinity (RU) read?
**A.** 153 RU

**Q.** With B2 as the binder, how does the Binding affinity (RU) read?
**A.** 153 RU

**Q.** With B3 as the binder, how does the Binding affinity (RU) read?
**A.** 139 RU

**Q.** For B4, which Binding affinity (RU) is on record?
**A.** 137 RU

**Q.** Which Binding affinity (RU) does the source give for B5 here?
**A.** 153 RU

**Q.** With B6 as the binder, how does the Binding affinity (RU) read?
**A.** 148 RU

**Q.** Which Binding affinity does the source give for B7 here?
**A.** 154 RU

**Q.** Which Binding affinity does the source give for B8 here?
**A.** 148 RU

**Q.** How did the Binding affinity (RU) turn out when B9 was run?
**A.** 144 RU

**Q.** With B10 as the binder, how does the Binding affinity read?
**A.** 121 RU

**Q.** B11 was tested. Which Binding affinity did it give?
**A.** 135 RU

**Q.** B12 was tested. Which Binding affinity did it give?
**A.** 149 RU

**Q.** B13 was tested. Which Binding affinity (RU) did it give?
**A.** 131 RU

**Q.** How did the Binding affinity turn out when B14 was run?
**A.** 128 RU

**Q.** Which Binding affinity (RU) does the source give for B15 here?
**A.** 153 RU

**Q.** With B16 as the binder, how does the Binding affinity read?
**A.** 139 RU

**Q.** With B17 as the binder, how does the Binding affinity (RU) read?
**A.** 122 RU

**Q.** How did the Binding affinity (RU) turn out when B18 was run?
**A.** 151 RU

**Q.** For B19, which Binding affinity is on record?
**A.** 133 RU

**Q.** How did the Binding affinity turn out when B20 was run?
**A.** 145 RU

**Q.** How did the Binding affinity turn out when B21 was run?
**A.** 133 RU

**Q.** B22 was tested. Which Binding affinity did it give?
**A.** 139 RU

**Q.** For B23, which Binding affinity is on record?
**A.** 135 RU

**Q.** How did the Binding affinity (RU) turn out when B24 was run?
**A.** 154 RU

**Q.** For B25, which Binding affinity (RU) is on record?
**A.** 121 RU

**Q.** Which Binding affinity does the source give for B26 here?
**A.** 127 RU

**Q.** With B27 as the binder, how does the Binding affinity read?
**A.** 127 RU

**Q.** How did the Binding affinity turn out when B28 was run?
**A.** 127 RU

**Q.** How did the Binding affinity (RU) turn out when B29 was run?
**A.** 148 RU

**Q.** B30 was tested. Which Binding affinity (RU) did it give?
**A.** 121 RU

**Q.** B31 was tested. Which Binding affinity (RU) did it give?
**A.** 127 RU

**Q.** With B32 as the binder, how does the Binding affinity read?
**A.** 153 RU

**Q.** B33 was tested. Which Binding affinity (RU) did it give?
**A.** 123 RU

**Q.** B34 was tested. Which Binding affinity (RU) did it give?
**A.** 139 RU

**Q.** How did the Binding affinity (RU) turn out when B35 was run?
**A.** 123 RU

**Q.** With B36 as the binder, how does the Binding affinity (RU) read?
**A.** 147 RU

**Q.** How did the Binding affinity (RU) turn out when B37 was run?
**A.** 148 RU

**Q.** Which Binding affinity (RU) does the source give for B38 here?
**A.** 139 RU

**Q.** B39 was tested. Which Binding affinity (RU) did it give?
**A.** 122 RU

**Q.** For B40, which Binding affinity (RU) is on record?
**A.** 147 RU

**Q.** With B41 as the binder, how does the Binding affinity (RU) read?
**A.** 142 RU

**Q.** B42 was tested. Which Binding affinity (RU) did it give?
**A.** 146 RU

**Q.** Which Binding affinity does the source give for B43 here?
**A.** 136 RU

**Q.** For B44, which Binding affinity is on record?
**A.** 142 RU

**Q.** With B45 as the binder, how does the Binding affinity read?
**A.** 128 RU

**Q.** How did the Binding affinity (RU) turn out when B46 was run?
**A.** 148 RU

**Q.** With B47 as the binder, how does the Binding affinity read?
**A.** 142 RU

**Q.** For B48, which Binding affinity is on record?
**A.** 145 RU

**Q.** Which Binding affinity does the source give for B49 here?
**A.** 124 RU

**Q.** With B50 as the binder, how does the Binding affinity (RU) read?
**A.** 151 RU

**Q.** B51 was tested. Which Binding affinity (RU) did it give?
**A.** 139 RU

**Q.** Which Binding affinity (RU) does the source give for B52 here?
**A.** 142 RU

**Q.** With B53 as the binder, how does the Binding affinity read?
**A.** 153 RU

**Q.** B54 was tested. Which Binding affinity (RU) did it give?
**A.** 139 RU

**Q.** B55 was tested. Which Binding affinity (RU) did it give?
**A.** 121 RU

**Q.** B56 was tested. Which Binding affinity (RU) did it give?
**A.** 137 RU

**Q.** For B57, which Binding affinity (RU) is on record?
**A.** 149 RU
